Patent publication US20200002406A1 (Janssen / Centocor, published 2020)

How the values were obtained:
[1] = biological target: human FcγRIIIa receptor (FcγRIIIa V158) (human, UniProt P08637 17-254); assay: cell-based or functional assay
[2] = biological target: T1, neuraminidase (NA) of influenza A virus H5N1 A/Hong Kong/156/97 (Influenza A virus A/Hong Kong/156/97 …, UniProt Q9W7Y7 1-450); assay: flow cytometry on 293-F cells transfected with NA
T1 construct: also called A/Hong Kong/156/97 (H5N1); NA of influenza virus A N1 subtype
T1 sequence (Q9W7Y7 whole entry): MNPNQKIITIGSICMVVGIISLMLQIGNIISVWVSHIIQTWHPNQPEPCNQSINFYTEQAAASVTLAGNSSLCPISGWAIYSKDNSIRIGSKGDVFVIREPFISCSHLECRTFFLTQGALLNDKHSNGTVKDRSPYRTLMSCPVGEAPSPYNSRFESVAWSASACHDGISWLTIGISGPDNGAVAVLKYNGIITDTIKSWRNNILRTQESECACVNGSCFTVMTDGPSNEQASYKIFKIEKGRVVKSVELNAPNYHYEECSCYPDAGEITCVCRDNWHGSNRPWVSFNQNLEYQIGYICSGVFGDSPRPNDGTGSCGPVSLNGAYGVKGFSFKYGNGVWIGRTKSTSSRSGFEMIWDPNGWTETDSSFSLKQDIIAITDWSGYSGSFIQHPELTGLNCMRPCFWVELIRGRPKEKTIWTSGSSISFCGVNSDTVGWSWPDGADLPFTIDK

[3] = biological target: T2, neuraminidase (NA) of influenza B virus B/Malaysia/2506/2004 (Victoria lineage) (Influenza B virus B/Malaysia/2506/2004); assay: cell-based or functional assay
[4] = biological target: neuraminidase (NA) of influenza A virus H1N1 strain A/New Caledonia/20/1999 (Influenza A virus A/New …); assay: cell-based or functional assay
[5] = biological target: neuraminidase (NA) of influenza A virus H3N2 strain A/Perth/16/2009 (Influenza A virus A/Perth/16/2009 (H3N2)); assay: cell-based or functional assay
[6] = biological target: T3, neuraminidase (NA) of influenza B virus B/Florida/04/2006 (Yamagata lineage) (Influenza B virus B/Florida/04/2006); assay: cell-based or functional assay
[7] = biological target: T2, neuraminidase (NA) of influenza B virus …; assay: cell-based or functional assay; remark: listed apart in the source
[8] = biological target: T3, neuraminidase (NA) of influenza B virus …; assay: cell-based or functional assay; remark: listed apart in the source

human FcγRIIIa receptor (FcγRIIIa V158), sequence (P08637 17-254 F176V limits assumed): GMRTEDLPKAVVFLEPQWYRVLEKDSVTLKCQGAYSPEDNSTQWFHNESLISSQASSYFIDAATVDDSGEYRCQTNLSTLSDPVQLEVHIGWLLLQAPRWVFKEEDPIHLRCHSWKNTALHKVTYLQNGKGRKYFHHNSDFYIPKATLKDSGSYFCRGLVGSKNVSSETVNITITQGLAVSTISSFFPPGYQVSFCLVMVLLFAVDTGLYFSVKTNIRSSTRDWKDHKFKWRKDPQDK

Row | Binder | ADCC Reporter Bioassay EC50; A549 target cells infected with B/Lee/1940 [1] [µg/mL] | MFI [2] [mfi] | Neuraminidase inhibition activity, EC50 (NA-XTD assay, whole virus) [3] [µg/mL] | Neuraminidase inhibition activity, EC50 (NA-XTD assay, whole virus) [4] [µg/mL] | Neuraminidase inhibition activity, EC50 (NA-XTD assay, whole virus) [5] [µg/mL] | Neuraminidase inhibition activity, EC50 (NA-XTD assay, whole virus) [6] [µg/mL] | Virus neutralization assay (VNA) on MDCK-SIAT1 cells, IC50 [7] [µg/mL] | Virus neutralization assay (VNA) on MDCK-SIAT1 cells, IC50 [8] [µg/mL]
1 | CR14017 (antibody, V domains shown, also called sc14-017; anti-NA IgG) VH: EVQLVETGGGVVQPGRSLRLSCAASGFTFNTHAMHWVRQAPGKGLEWLAVISYDGNIKYYADSVKGRFTISRDSSKNTLYLLMNSLRAEDTAIYYCARDRGDYNYLPSDYWGQGTLVTVSS VL: not shown | 0.08 | < 250 |  |  |  |  |  | 
2 | CR14011 (antibody, V domains shown, also called sc14-011; anti-NA IgG) VH: EVQLVETGGGVVQPGRSLRLSCSVSGFSFTTYAMHWVRQAPGKGLEWVAIISDDATKKYYADSVKGRFTISRDNSRNTLILQMNSLRAEDTGVYYCAKDGDPGYDSRYYYYYGMDVWGQGTTVTVSS VL: SYVLTQPPSVSVAPGKTARITCGGNNIGSKSVHWYQQKPGQAPVLVIYYDSDRPSGIPERFSGSNSGNTATLTISRVEAGDEADYYCQVWDSSSDHPVFGGGTKLTVL |  | < 250 | 0.013 | > 50 | > 50 | 0.004 | 1.19 | 2.21
3 | CR14012 (antibody, V domains shown, also called sc14-012; anti-NA IgG) VH: QVQLQESGGGVVQPGRSLRLSCAASGFSFSTYGMHWVRQAPGKGLEWVAVISYDGSNKYYADSVKGRFTISRDNAKNTLYLQMNSLRAEDTAVYYCGRDSGYTTNWYPGGYWGQGTLVTVSS VL: not shown |  | < 250 |  |  |  |  |  | 
